Experimental data from paper PMC6555819, “Comprehensive study of nuclear receptor DNA binding provides a revised framework for understanding receptor specificity”.
Where a chain is given by its changes, count along the chain named.

B1: NRC3_wobSeed40_DR1_G10A_o1 (dsDNA)
DNA 1: GCTAGCCTAAGTCATGGGCCAGTATACCACGCGAACGCGATTGACAGCGTAGAATGAAGG
DNA 2: CCTTCATTCTACGCTGTCAATCGCGTTCGCGTGGTATACTGGCCCATGACTTAGGCTAGC
B2: NRC3_wobSeed61_DR2_G11C_o1 (dsDNA)
DNA 1: GCCGTCCAAGCTCAGCAGGTCAGTGAAAGCGACGTGGCGATTGACAGCGTAGAATGAAGG
DNA 2: CCTTCATTCTACGCTGTCAATCGCCACGTCGCTTTCACTGACCTGCTGAGCTTGGACGGC
B3: NRC3_random_hg19_221_o1 (dsDNA)
DNA 1: GCCTTGAATCCAGGAGGCAGAGGCTGCAGTGAGCTGGCGATTGACAGCGTAGAATGAAGG
DNA 2: CCTTCATTCTACGCTGTCAATCGCCAGCTCACTGCAGCCTCTGCCTCCTGGATTCAAGGC
B4: NRC3_random_hg19_367_o1 (dsDNA)
DNA 1: GCATCTGTGTAACCAGCACCACAGTTAAGATACAGAGCGATTGACAGCGTAGAATGAAGG
DNA 2: CCTTCATTCTACGCTGTCAATCGCTCTGTATCTTAACTGTGGTGCTGGTTACACAGATGC
B5: NRC3_random_hg19_483_o1 (dsDNA)
DNA 1: GCGAATGGAATAGAGTGGAATGCAGTGGAATGGAAAGCGATTGACAGCGTAGAATGAAGG
DNA 2: CCTTCATTCTACGCTGTCAATCGCTTTCCATTCCACTGCATTCCACTCTATTCCATTCGC
B6: NRC3_random_hg19_239_o1 (dsDNA)
DNA 1: GCATACATAAGGTGATTTGGCTACATGTATAGACAGGCGATTGACAGCGTAGAATGAAGG
DNA 2: CCTTCATTCTACGCTGTCAATCGCCTGTCTATACATGTAGCCAAATCACCTTATGTATGC
B7: NRC3_wobSeed101_DR4_A14T_o1 (dsDNA)
DNA 1: GCCCTTACGGGTCTCTCCAGGTTATAGCATCGGAGTGCGATTGACAGCGTAGAATGAAGG
DNA 2: CCTTCATTCTACGCTGTCAATCGCACTCCGATGCTATAACCTGGAGAGACCCGTAAGGGC
B8: NRC3_random_hg19_167_o1 (dsDNA)
DNA 1: GCTTTGAAGACACTGAAGGAGTGAGCCATTTGGATCGCGATTGACAGCGTAGAATGAAGG
DNA 2: CCTTCATTCTACGCTGTCAATCGCGATCCAAATGGCTCACTCCTTCAGTGTCTTCAAAGC
B9: NRC3_wobSeed134_DR5_A14G_o1 (dsDNA)
DNA 1: GCGCTGCTAGGTCGACTGATGGTCAGCTAAAGCTCGGCGATTGACAGCGTAGAATGAAGG
DNA 2: CCTTCATTCTACGCTGTCAATCGCCGAGCTTTAGCTGACCATCAGTCGACCTAGCAGCGC
B10: NRC3_wobSeed15_DR0_G10T_o1 (dsDNA)
DNA 1: GCCGAACTATGTCAAGGACAGTGAATCTCCGCACGCGCGATTGACAGCGTAGAATGAAGG
DNA 2: CCTTCATTCTACGCTGTCAATCGCGCGTGCGGAGATTCACTGTCCTTGACATAGTTCGGC
B11: NRC3_wobSeed14_DR0_G11T_o1 (dsDNA)
DNA 1: GCCCTGCTAGTTCATGGTCAGCTAATCTACAGTATGGCGATTGACAGCGTAGAATGAAGG
DNA 2: CCTTCATTCTACGCTGTCAATCGCCATACTGTAGATTAGCTGACCATGAACTAGCAGGGC
B12: NRC3_wobSeed47_DR1_G11C_o1 (dsDNA)
DNA 1: GCGGAACGAGCGCAAAGTTGATAGCATCTGTCGACGGCGATTGACAGCGTAGAATGAAGG
DNA 2: CCTTCATTCTACGCTGTCAATCGCCGTCGACAGATGCTATCAACTTTGCGCTCGTTCCGC
B13: NRC3_wobSeed122_DR5_A20T_o1 (dsDNA)
DNA 1: GCGCTAGTTGGTCAGTAAATGGTCACACACCGGTCGGCGATTGACAGCGTAGAATGAAGG
DNA 2: CCTTCATTCTACGCTGTCAATCGCCGACCGGTGTGTGACCATTTACTGACCAACTAGCGC
B14: NRC3_wobSeed64_DR2_A9C_o1 (dsDNA)
DNA 1: GCTAGCCTCGGTCATTGGGCCAGTATAGTACGCATCGCGATTGACAGCGTAGAATGAAGG
DNA 2: CCTTCATTCTACGCTGTCAATCGCGATGCGTACTATACTGGCCCAATGACCGAGGCTAGC
B15: NRC3_wobSeed38_DR1_G11T_o1 (dsDNA)
DNA 1: GCCCTGCTAGTTCAATGGTCAGCTAAAGCAGCTCGCGCGATTGACAGCGTAGAATGAAGG
DNA 2: CCTTCATTCTACGCTGTCAATCGCGCGAGCTGCTTTAGCTGACCATTGAACTAGCAGGGC
B16: NRC3_wobSeed38_DR1_A9C_o1 (dsDNA)
DNA 1: B15 DNA 1 with A9C, T11G
DNA 2: B15 DNA 2 with A50C, T52G
B17: NRC3_random_hg19_172_o1 (dsDNA)
DNA 1: GCCAGTACTGTTGCTAGAACTACAACCTGTATGCTGGCGATTGACAGCGTAGAATGAAGG
DNA 2: CCTTCATTCTACGCTGTCAATCGCCAGCATACAGGTTGTAGTTCTAGCAACAGTACTGGC
B18: NRC3_random_hg19_200_o1 (dsDNA)
DNA 1: GCGCAGGAGAATCAGGCAGGGAGGTTGCAGTGAGCCGCGATTGACAGCGTAGAATGAAGG
DNA 2: CCTTCATTCTACGCTGTCAATCGCGGCTCACTGCAACCTCCCTGCCTGATTCTCCTGCGC
B19: NRC3_random_hg19_44_o1 (dsDNA)
DNA 1: GCATTTGAGATCTCAGTTTCTGCATACTGAATCACCGCGATTGACAGCGTAGAATGAAGG
DNA 2: CCTTCATTCTACGCTGTCAATCGCGGTGATTCAGTATGCAGAAACTGAGATCTCAAATGC
B20: NRC3_wobSeed90_DR3_C13A_o1 (dsDNA)
DNA 1: GCCATACAGGGTAAGCTAGGCCAGAGTAGGGACGGCGCGATTGACAGCGTAGAATGAAGG
DNA 2: CCTTCATTCTACGCTGTCAATCGCGCCGTCCCTACTCTGGCCTAGCTTACCCTGTATGGC
B21: NRC3_wobSeed44_DR1_A14T_o1 (dsDNA)
DNA 1: GCTGAATGAGGTTTAAGATCAGGGAACGTGGCGTCGGCGATTGACAGCGTAGAATGAAGG
DNA 2: CCTTCATTCTACGCTGTCAATCGCCGACGCCACGTTCCCTGATCTTAAACCTCATTCAGC
B22: NRC3_random_hg19_99_o1 (dsDNA)
DNA 1: GCTGTTCTTACTGAGGCGTTTGCTGCCTAGCTCCCTGCGATTGACAGCGTAGAATGAAGG
DNA 2: CCTTCATTCTACGCTGTCAATCGCAGGGAGCTAGGCAGCAAACGCCTCAGTAAGAACAGC
B23: NRC3_random_hg19_303_o1 (dsDNA)
DNA 1: GCAAGATCTCTACAATGAATTGTACCAATGCTCCAGGCGATTGACAGCGTAGAATGAAGG
DNA 2: CCTTCATTCTACGCTGTCAATCGCCTGGAGCATTGGTACAATTCATTGTAGAGATCTTGC
B24: NRC3_wobSeed133_DR5_A14C_o1 (dsDNA)
DNA 1: GCCGTCCAAGGTCCATGCTAGGTCAGTGAAAGCATTGCGATTGACAGCGTAGAATGAAGG
DNA 2: CCTTCATTCTACGCTGTCAATCGCAATGCTTTCACTGACCTAGCATGGACCTTGGACGGC

Each binder was assayed against PPARa:RXRa (Homo sapiens, UniProt Q07869;P19793 full;full) (assay: no ligand; PBM; 270 nM : 90 nM RXRa; PBS pH 7.4, 2% milk, 0.02% Triton X-100, 1 mM DTT, BSA, 0.4 mg/ml salmon testes DNA). Settings: tags: GST kept;His cleaved; copies: 1;1; label: surface-attached array probe.
Outline: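 Antibodies against each partner of ligand-free nuclear receptor dimers (one per run) detected binding on custom Agilent 4×180K protein-binding microarrays after 1 h incubation. The double-stranded probes had 34-nt variable regions carrying direct-repeat seeds, single-nucleotide variants, half-site ablations and random human genomic background sequences. Binding z-scores, from regression-normalized fluorescence, use the random background probes as reference.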

PPARa:RXRa, sequence (Q07869 whole entry, chain 1 of 2): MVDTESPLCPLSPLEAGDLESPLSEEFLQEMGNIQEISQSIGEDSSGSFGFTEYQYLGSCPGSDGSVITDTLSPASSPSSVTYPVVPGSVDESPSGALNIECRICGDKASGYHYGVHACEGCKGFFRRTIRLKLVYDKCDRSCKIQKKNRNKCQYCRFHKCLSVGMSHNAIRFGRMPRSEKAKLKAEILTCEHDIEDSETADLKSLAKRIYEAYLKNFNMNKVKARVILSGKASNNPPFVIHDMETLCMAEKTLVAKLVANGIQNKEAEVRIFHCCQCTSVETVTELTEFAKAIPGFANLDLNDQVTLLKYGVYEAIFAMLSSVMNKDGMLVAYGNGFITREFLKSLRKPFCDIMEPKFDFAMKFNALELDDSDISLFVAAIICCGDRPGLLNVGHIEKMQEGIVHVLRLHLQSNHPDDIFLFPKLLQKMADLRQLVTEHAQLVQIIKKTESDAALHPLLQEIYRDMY
PPARa:RXRa, sequence (P19793 whole entry, chain 2 of 2): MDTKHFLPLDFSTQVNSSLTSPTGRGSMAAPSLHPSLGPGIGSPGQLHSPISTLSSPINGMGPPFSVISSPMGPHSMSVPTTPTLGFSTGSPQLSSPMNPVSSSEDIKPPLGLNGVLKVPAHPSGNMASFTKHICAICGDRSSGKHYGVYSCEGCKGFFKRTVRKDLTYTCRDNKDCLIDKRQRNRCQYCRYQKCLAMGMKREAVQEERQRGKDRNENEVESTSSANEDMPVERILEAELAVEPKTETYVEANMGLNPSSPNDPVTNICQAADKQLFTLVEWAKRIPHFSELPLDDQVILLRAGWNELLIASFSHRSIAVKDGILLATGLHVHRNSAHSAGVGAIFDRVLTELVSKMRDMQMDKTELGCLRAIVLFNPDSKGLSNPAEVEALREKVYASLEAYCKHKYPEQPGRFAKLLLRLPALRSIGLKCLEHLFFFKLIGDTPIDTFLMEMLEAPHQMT

Point of comparison: B7, binding signal 0.07 PBM z-score against 500 random probes. Against it:
- B1 — lower, -0.06 PBM z-score against 500 random probes
- B2 — higher, 0.35 PBM z-score against 500 random probes
- B3 — lower, -0.29 PBM z-score against 500 random probes
- B4 — lower, -0.28 PBM z-score against 500 random probes
- B5 — lower, -0.61 PBM z-score against 500 random probes
- B6 — higher, 0.32 PBM z-score against 500 random probes
- B8 — lower, -0.13 PBM z-score against 500 random probes
- B9 — lower, 0.01 PBM z-score against 500 random probes
- B10 — higher, 0.36 PBM z-score against 500 random probes
- B11 — higher, 0.23 PBM z-score against 500 random probes
- B12 — higher, 0.32 PBM z-score against 500 random probes
- B13 — higher, 0.26 PBM z-score against 500 random probes
- B14 — higher, 0.15 PBM z-score against 500 random probes
- B15 — higher, 0.22 PBM z-score against 500 random probes
- B16 — lower, 0.02 PBM z-score against 500 random probes
- B17 — lower, -0.42 PBM z-score against 500 random probes
- B18 — lower, -0.47 PBM z-score against 500 random probes
- B19 — lower, -0.2 PBM z-score against 500 random probes
- B20 — lower, -0.35 PBM z-score against 500 random probes
- B21 — higher, 0.18 PBM z-score against 500 random probes
- B22 — lower, -0.37 PBM z-score against 500 random probes
- B23 — lower, -0.05 PBM z-score against 500 random probes
- B24 — higher, 0.33 PBM z-score against 500 random probes
